# Source: the supplement of paper PMC10065799, “High-throughput profiling of sequence recognition by tyrosine kinases and SH2 domains using bacterial peptide display” (eLife, 2023)
# Experiments:
# [1] = target: Hck (UniProt P08631); experiment: phosphorylation enrichment, bacterial display (enrichment ratio); higher = better substrate or ligand; peptides without Tyr show the background
# [2] = system: Fer (mouse); experiment: as above
# [3] = target: FGFR3 (UniProt P22607); experiment: as above
# [4] = system: c-Abl (mouse); experiment: as above
# [5] = target: Fyn (UniProt P06241); experiment: as above
# Sequence of Fyn (P06241 whole entry, looked up): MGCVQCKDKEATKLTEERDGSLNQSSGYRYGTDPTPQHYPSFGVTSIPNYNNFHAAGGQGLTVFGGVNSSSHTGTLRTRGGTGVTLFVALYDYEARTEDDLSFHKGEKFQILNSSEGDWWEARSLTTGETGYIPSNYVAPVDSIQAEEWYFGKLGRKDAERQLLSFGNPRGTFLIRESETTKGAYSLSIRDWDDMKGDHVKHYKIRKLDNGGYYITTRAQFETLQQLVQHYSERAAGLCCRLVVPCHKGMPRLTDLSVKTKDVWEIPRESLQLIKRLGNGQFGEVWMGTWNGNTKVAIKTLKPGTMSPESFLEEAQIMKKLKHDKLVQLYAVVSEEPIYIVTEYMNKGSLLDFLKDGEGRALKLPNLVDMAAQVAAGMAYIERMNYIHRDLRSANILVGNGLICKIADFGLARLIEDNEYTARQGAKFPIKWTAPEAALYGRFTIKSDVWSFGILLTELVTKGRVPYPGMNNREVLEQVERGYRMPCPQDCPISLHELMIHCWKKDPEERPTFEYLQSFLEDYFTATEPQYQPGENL
# [6] = system: c-Src; experiment: as above
# [7] = target: FGFR1 (UniProt P11362); experiment: as above
# Sequence of FGFR1 (P11362 whole entry, looked up): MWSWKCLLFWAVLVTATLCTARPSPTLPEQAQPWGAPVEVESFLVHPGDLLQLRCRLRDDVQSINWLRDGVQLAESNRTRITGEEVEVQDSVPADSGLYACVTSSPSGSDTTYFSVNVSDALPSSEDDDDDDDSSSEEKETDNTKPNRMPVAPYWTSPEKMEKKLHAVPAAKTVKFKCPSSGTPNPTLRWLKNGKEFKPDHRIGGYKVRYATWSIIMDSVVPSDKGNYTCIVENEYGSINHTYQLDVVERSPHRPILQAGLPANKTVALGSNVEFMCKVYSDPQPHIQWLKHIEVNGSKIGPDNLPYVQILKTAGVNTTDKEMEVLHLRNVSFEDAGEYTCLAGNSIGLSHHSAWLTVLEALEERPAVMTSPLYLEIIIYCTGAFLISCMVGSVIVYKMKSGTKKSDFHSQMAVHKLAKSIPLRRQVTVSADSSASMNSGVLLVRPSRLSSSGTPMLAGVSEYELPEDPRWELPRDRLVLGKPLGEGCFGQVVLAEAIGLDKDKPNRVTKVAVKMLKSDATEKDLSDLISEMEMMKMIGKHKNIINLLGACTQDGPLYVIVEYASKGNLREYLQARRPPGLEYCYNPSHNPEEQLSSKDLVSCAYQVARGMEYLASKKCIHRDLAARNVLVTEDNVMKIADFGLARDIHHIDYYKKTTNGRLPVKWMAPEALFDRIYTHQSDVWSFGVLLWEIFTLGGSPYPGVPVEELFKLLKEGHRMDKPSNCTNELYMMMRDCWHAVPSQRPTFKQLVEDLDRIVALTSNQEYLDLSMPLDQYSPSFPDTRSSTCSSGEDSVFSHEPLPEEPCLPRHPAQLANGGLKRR
# [8] = target: Fes (UniProt P07332); experiment: as above
# Sequence of Fes (P07332 whole entry, looked up): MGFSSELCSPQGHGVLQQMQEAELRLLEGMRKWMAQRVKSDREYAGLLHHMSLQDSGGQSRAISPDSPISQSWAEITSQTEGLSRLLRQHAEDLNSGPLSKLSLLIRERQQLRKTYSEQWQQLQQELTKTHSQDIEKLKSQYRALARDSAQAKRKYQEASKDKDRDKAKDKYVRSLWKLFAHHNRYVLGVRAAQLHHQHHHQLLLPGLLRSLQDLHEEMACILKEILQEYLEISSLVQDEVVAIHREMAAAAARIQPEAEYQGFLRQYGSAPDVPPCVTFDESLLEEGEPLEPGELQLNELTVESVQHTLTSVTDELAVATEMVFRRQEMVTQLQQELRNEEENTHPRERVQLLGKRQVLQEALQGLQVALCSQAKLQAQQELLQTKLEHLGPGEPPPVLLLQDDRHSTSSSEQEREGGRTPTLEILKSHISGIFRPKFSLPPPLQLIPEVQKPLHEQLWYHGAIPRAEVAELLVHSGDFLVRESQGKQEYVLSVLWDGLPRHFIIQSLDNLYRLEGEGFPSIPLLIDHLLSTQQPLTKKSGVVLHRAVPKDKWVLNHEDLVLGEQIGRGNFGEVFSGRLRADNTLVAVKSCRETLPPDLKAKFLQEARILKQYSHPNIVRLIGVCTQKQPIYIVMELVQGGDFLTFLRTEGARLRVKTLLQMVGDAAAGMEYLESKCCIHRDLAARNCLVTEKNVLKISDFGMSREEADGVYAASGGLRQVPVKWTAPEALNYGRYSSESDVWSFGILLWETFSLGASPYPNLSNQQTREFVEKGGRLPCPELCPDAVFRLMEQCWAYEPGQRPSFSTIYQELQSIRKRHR
# [9] = target: EPHB1 (UniProt P54762); experiment: as above
# [10] = target: Jak2 (UniProt O60674); experiment: as above
# Sequence of Jak2 (O60674 whole entry, looked up): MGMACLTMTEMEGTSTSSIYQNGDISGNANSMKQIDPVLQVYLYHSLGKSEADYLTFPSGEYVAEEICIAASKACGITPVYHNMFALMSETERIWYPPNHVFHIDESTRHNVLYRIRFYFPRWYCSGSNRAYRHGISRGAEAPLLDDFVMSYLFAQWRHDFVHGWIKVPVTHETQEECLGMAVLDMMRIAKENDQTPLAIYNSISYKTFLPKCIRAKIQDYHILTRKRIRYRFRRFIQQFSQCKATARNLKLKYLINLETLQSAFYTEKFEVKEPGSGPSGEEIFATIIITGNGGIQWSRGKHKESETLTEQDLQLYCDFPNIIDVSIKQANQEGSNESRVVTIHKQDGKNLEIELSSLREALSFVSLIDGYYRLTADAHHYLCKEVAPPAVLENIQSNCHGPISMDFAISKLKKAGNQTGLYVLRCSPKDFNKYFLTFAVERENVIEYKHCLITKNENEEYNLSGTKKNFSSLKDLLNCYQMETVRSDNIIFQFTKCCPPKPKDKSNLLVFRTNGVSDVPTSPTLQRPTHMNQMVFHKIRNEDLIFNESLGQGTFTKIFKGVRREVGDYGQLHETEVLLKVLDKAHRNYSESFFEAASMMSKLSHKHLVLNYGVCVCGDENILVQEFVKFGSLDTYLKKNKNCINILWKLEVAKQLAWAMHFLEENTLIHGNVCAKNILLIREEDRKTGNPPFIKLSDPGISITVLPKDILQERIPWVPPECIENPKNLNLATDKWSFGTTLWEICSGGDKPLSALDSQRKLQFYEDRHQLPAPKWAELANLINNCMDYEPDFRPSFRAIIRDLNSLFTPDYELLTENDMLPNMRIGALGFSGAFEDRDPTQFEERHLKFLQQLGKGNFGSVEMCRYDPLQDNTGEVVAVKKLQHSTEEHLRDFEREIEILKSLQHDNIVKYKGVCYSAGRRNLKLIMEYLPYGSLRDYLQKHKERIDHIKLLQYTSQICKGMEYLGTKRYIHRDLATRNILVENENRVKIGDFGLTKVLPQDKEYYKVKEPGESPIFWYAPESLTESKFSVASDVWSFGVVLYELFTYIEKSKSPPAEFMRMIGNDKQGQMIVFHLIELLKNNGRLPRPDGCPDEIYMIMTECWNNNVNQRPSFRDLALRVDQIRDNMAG
# [11] = target: EPHB2 (UniProt P29323); experiment: as above
# Sequence of EPHB2 (P29323 whole entry, looked up): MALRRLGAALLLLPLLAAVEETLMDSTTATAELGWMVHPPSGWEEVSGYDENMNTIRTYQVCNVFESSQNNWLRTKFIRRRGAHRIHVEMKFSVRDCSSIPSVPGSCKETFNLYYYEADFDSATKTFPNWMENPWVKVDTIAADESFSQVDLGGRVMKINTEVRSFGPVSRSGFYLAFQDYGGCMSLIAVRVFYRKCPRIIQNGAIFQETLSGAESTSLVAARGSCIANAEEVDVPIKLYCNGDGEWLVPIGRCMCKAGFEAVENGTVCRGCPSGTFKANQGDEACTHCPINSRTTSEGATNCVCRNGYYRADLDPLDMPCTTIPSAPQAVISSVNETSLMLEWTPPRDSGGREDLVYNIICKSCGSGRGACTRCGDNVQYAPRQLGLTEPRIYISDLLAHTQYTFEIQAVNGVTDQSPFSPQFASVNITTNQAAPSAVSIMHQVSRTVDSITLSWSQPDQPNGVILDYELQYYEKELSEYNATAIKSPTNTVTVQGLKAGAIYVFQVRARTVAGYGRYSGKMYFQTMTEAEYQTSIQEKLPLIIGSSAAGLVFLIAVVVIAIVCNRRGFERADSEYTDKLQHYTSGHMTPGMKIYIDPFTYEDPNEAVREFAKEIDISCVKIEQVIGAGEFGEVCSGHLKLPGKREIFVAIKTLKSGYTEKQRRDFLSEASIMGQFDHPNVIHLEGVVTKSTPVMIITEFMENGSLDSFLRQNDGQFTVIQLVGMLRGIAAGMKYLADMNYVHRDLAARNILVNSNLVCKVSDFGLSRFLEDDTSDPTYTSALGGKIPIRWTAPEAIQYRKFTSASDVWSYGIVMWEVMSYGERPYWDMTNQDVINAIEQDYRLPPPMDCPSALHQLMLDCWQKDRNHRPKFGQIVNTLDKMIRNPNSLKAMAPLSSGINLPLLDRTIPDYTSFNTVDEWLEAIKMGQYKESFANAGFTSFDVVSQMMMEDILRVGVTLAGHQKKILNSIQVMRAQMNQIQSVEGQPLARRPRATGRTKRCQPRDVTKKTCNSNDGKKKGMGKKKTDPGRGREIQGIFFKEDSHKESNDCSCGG
# [12] = system: AncSZ; experiment: as above
# [13] = target: MERTK (UniProt Q12866); experiment: as above
# [14] = target: c-Src SH2; experiment: SH2 binding enrichment of the phosphorylated peptide, bacterial display (enrichment ratio); higher = better substrate or ligand; peptides without Tyr show the background
# [15] = target: SHP2-C SH2; experiment: as above
# [16] = target: Grb2 SH2 (UniProt P62993); experiment: as above
# Sequence of Grb2 SH2 (P62993 whole entry, looked up, the tested form may be a part): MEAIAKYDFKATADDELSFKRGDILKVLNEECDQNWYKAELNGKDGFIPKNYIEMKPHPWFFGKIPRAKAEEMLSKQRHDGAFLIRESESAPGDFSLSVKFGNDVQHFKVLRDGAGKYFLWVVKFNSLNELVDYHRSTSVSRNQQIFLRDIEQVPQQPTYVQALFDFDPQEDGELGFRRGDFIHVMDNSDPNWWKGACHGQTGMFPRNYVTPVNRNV
# 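For SH2 binding enrichment of the phosphorylated peptide, bacterial display in this document: peptide library displayed on the E. coli surface as eCPX fusions, selected cells deep-sequenced, score is each peptide's frequency after selection divided by its frequency in the input.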
# 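For phosphorylation enrichment, bacterial display in this document: 11-residue human phosphosite peptides and single-mutation variants displayed on the E. coli surface, counted by deep sequencing, each peptide's frequency after selection divided by its frequency in the unselected input library; frequency after pTyr selection over input frequency; kinase dosed for 20-30% of maximal phosphorylation in three min.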
Sequence,phosphorylation enrichment [1],phosphorylation enrichment [2],phosphorylation enrichment [3],phosphorylation enrichment [4],phosphorylation enrichment [5],phosphorylation enrichment [6],phosphorylation enrichment [7],phosphorylation enrichment [8],phosphorylation enrichment [9],phosphorylation enrichment [10],phosphorylation enrichment [11],phosphorylation enrichment [12],phosphorylation enrichment [13],SH2 binding enrichment [14],SH2 binding enrichment [15],SH2 binding enrichment [16]
LLKKVYLMLDN [STAT1_Y203_M202V],0.658,0.801,1.15,1.34,0.627,0.816,0.968,2.19,0.93,1.85,0.953,1.82,0.704,0.566,0.793,0.96
LNPDGYEKAFE [CPXM2_Y427_YF],0.586,0.557,0.704,1.05,0.576,0.738,0.769,1.49,0.667,0.995,0.988,1.15,0.483,3.95,0.77,0.868
LNPDGYKKAYE [CPXM2_Y427_E428K],0.515,0.619,1.46,1.35,0.676,0.513,0.86,1.14,0.605,1,0.749,0.905,0.734,0.444,0.613,0.744
LNPFIYSLRNC [OR1A2_Y288_W293C],5.22,1,1.2,0.792,4.37,6.28,0.902,2.72,0.826,1.11,1.24,1.45,1.04,0.624,0.734,0.69
LNPLIYTLRNA [OR4C46_Y285_K288R],7.15,1.03,0.863,1.76,4.69,6.62,0.922,1.12,0.576,1.31,0.9,1.79,1.97,0.521,0.738,0.798
LNPVVYTLRNA [OR4C12_Y285],1.27,0.856,0.69,1.2,0.635,1.92,0.593,1.09,0.761,1.5,0.636,1.26,0.971,0.629,1.37,0.77
LPQDGYRIVQH [PTPRT_Y1329_R1324L],0.418,0.408,0.55,0.716,0.43,0.346,0.403,0.809,0.402,0.575,0.423,0.672,0.361,0.44,0.708,0.727
LQEQNYPAVDS [FAM114A1_Y115_L116P],0.739,0.878,1.54,1.13,0.92,0.699,0.988,1.86,1.37,1.54,1.26,2.01,0.81,0.655,0.508,0.698
LQTYRYHGHSM [PDHA1_Y289],0.288,0.455,0.395,0.411,0.414,0.285,0.323,0.513,0.489,0.569,0.337,0.52,0.698,0.561,0.646,0.879
LRAGVYHEKDQ [DNM2_Y626_P627H],0.605,0.509,0.763,0.877,0.608,0.617,0.635,1.29,0.629,1.08,0.451,0.735,0.491,0.445,0.657,0.92
LRFDSYSSFCN [SLC20A2_Y433_YF],0.687,0.617,1.1,0.833,0.464,0.642,0.703,1.52,0.736,1.37,0.734,1.54,0.479,0.519,0.612,0.805
LRRFIYRPPDR [OTOF_Y1231],0.854,0.583,0.656,0.485,0.678,0.954,0.808,1.18,0.529,0.809,0.656,0.825,0.824,0.725,0.504,0.538
LSSNLYFRWLT [CNGA3_Y168_P163L_YF],1.73,1.01,1.51,1.79,0.595,1.21,1.15,1.64,0.783,5.07,0.749,1.76,4.32,0.531,1.01,0.655
LTPVKYLLSAT [GSDMC_Y26],0.429,0.282,0.508,0.593,0.396,0.345,0.46,0.616,0.585,0.433,0.412,0.515,0.425,0.537,1.05,1.08
LWEGSYGKVKE [STK11_Y60_G56W],0.678,0.647,0.77,0.69,0.623,0.721,0.587,2.28,0.476,1.08,0.491,0.872,0.509,0.507,1.21,0.645
LYYYSYLLKNH [PTEN_Y180_V175L],1.49,0.959,3.79,1.97,0.946,1.06,4.27,1.3,3.44,2.46,1.65,1.64,4.98,0.666,1.23,1.05
MARDIYQASFF [LTK_Y672_R673Q_YF],7.31,3.26,0.564,5.43,6.4,6.07,0.679,0.887,2.15,0.992,1.7,0.966,5.44,0.466,0.678,0.972

Sequence,phosphorylation enrichment [1],phosphorylation enrichment [2],phosphorylation enrichment [3],phosphorylation enrichment [4],phosphorylation enrichment [5],phosphorylation enrichment [6],phosphorylation enrichment [7],phosphorylation enrichment [8],phosphorylation enrichment [9],phosphorylation enrichment [10],phosphorylation enrichment [11],phosphorylation enrichment [12],phosphorylation enrichment [13],SH2 binding enrichment [14],SH2 binding enrichment [15],SH2 binding enrichment [16]
MDFRSYPREFG [RBM10_Y44_YF],0.388,0.366,0.511,0.455,0.366,0.431,0.529,0.858,0.437,0.63,0.454,0.606,0.352,0.578,0.975,1.09
MEVGQYFFVKC [CYBB_Y324_I325F],0.719,0.801,4.7,1.39,0.551,0.667,4.99,1.69,0.861,2.56,0.8,2.28,1.13,0.44,0.61,0.716
MFCAGYDTKQE [F10_Y407],0.632,0.652,0.877,0.793,0.539,0.584,0.518,1.47,0.81,1.38,0.805,1.11,0.48,0.495,0.727,0.65
MIHSAYALGGL [CPS1_Y590_R587H],0.464,0.626,0.471,0.373,0.566,0.489,0.388,0.592,0.36,0.502,0.428,0.53,0.409,0.716,0.64,0.883
MIRSAYALRGL [CPS1_Y590_G593R],0.491,0.409,0.527,0.502,0.39,0.474,0.474,0.628,0.434,0.543,0.448,0.669,0.423,0.408,0.6,0.731
MKGDFYCFLAE [YWHAG_Y131_R132C_YF],0.695,0.644,1.5,0.971,0.456,0.592,1.02,1.58,1.18,1.29,0.88,1.32,2.81,0.54,0.742,0.725
MKGDYYCYLAE [YWHAG_Y131_R132C],1.48,1.07,9.01,1.85,2.16,2.49,11.4,1.5,5.59,5.78,5.89,3,5.47,1.36,0.779,0.789
MPLTKYLKRIK [CNGB3_Y200_E199K],0.534,0.425,0.488,0.498,0.377,0.391,0.472,0.623,0.425,0.477,0.377,0.641,0.431,0.834,1.03,1.27
MPVDGYISGLL [PAK6_Y81],0.441,0.522,0.626,0.622,0.524,0.487,0.583,0.953,0.447,0.817,0.59,0.716,0.41,0.511,0.661,0.903
MRTMGYMPTEM [CABP5_Y62],0.456,0.459,0.538,0.447,0.388,0.355,0.63,0.732,0.428,0.507,0.509,0.683,0.344,0.407,1.08,0.789
MSNVPYVMNRG [ACAT1_Y161],0.399,0.377,0.594,0.527,0.426,0.478,0.464,0.619,0.368,0.572,0.421,0.734,0.474,0.399,0.657,0.919
MSRNLYSGDFF [DDR2_Y736_YF],5.38,1.57,2.16,0.797,5.54,4.14,2.41,0.98,7.35,0.655,10,0.825,9.92,0.773,0.611,0.83
MTYVFYRENLR [NLRP14_Y443],1.03,0.521,0.967,0.791,0.823,1.36,0.653,1.4,1.03,1.48,0.741,1.64,0.514,0.72,1.22,1.24
NAGDFYDLFGG [PTPN11_Y63_T59A_YF],3.55,2.43,0.769,0.762,5.68,6.02,0.455,1.16,0.651,0.971,0.564,1.11,2.72,0.497,0.635,0.642
NAMRRYIEEFQ [MNS1_Y244],0.413,0.417,0.501,0.541,0.371,0.347,0.458,0.819,0.352,0.516,0.459,0.734,0.346,0.452,0.585,0.847
NCLRQYVAGRF [CRB1_Y711_E710Q],0.337,0.367,0.467,0.576,0.477,0.444,0.382,0.646,0.39,0.62,0.492,0.993,0.456,0.299,0.571,0.709
